Results on 118 variants are retold here after the emibetuzumab library of Makowski et al. (2022).

B1: VH:VL chains; a variant is named by its letters at X, in order (parent)
chain 1: QVQLVQSGAEVKKPGASVKVSCKASGYTFTDYXMHWVRQAPGQGLEWMGXVNPNXXXTTYNQKFEGRVTMTTDTSTSTAYMELRSLRSDDTAVYYCARXNXLDXWGQGTTVTVSS
chain 2: DIQMTQSPSSLSASVGDRVTITCSVSSSVSSIYLHWYQQKPGKAPKLLIYSTSNLASGVPSRFSGSGSGTDFTLTISSLQPEDFATYYCQVYSGYPLTFGGGTKVEIK

In the data set the parent is B1. As to the kind of experiment: yeast display scFab, FACS + sequencing. The method, boiled down: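 Non-specific binding was called from deep sequencing of sorted yeast cells displaying a heavy-chain CDR mutant scFab library. Cells labelled with anti-Myc and biotinylated ovalbumin (260 μg/mL in PBSB, 3 h, room temperature) or soluble membrane proteins (130 μg/mL, 20 min on ice) were FACS-sorted, collecting the top 25% and bottom 10% of binders from two replicates. A sequence was positive when present in ≥3 of 4 pooled positive samples and absent from all negatives, and negative under the converse rule.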
In the case of YRRGGASA, the non-specific binding call was “binds”.
For the variant YRRGGASD, the non-specific binding call is reported as “binds”.
Regarding YKGKGSAV, the non-specific binding call is on record as “binds”.
As to DKEGGAAA, the non-specific binding call is “no binding”.
The same measure for FRGKGAGA: “binds”.
The same measure for ATRTDDVF: “no binding”; for VGAEDDVA: “no binding”.
The same measure for DARGGAAV: “no binding”; for DAAGASVD: “no binding”.
Turning to SKAKGSAA, the non-specific binding call was “binds”.
The entry for YRRRGYAA is “binds”; for FRTRDSAA it is “binds”.
Consider YAAKTAAA, for which the non-specific binding call is on record as “binds”.
The entry for VTEGDAGA is “no binding”; for YKTGNDVA it is “no binding”; for YKTRGSLD it is “binds”.
For the variant YRGAGYGS, the non-specific binding call was “binds”.
The entry for VKRGDDVA is “no binding”; for FRGRDYGF it is “binds”.
With FRTEGSGY, the non-specific binding call is listed as “binds”.
The entry for YKGGGAGA is “binds”.
YRRGGSGD: the non-specific binding call was “binds”.
On to VEGGGAAS, for which the non-specific binding call is “no binding”.
Turning to VEGGGDGD, the non-specific binding call is recorded as “no binding”.
The entry for STTRGAVA is “no binding”.
The same measure for FRGGSAVY: “binds”.
As for VTGEDSGV, the non-specific binding call is given as “no binding”.
The same measure for DAGGGYGV: “no binding”; for YRAKGAGS: “binds”; for DEGGTDAA: “no binding”.
The same measure for DEGGTDAV: “no binding”; for YRRGGAGY: “binds”.
As to FKGKGAVV, the non-specific binding call is “binds”.
The entry for DTKAAAVV is “no binding”; for YRARGSGY it is “binds”.
The same measure for YKGRGYGA: “binds”; for STEASYLS: “no binding”; for VEEEGDVY: “no binding”.
The entry for AARADDAV is “no binding”.
Take VKRRSVGA: the non-specific binding call was “binds”.
The entry for AKGRAAAS chain 1 D103N is “binds”; for YRRRGAWV it is “binds”; for FRGRGDLS it is “binds”.
The entry for VRGRGALF is “binds”; for YRGRSAGS it is “binds”.
Turning to FATGGSGD, the non-specific binding call was “binds”.
The entry for FKARGASV is “binds”; for DAKEGDVV it is “no binding”.
For DGGRGDVV, the non-specific binding call was “no binding”.
The entry for VEKEGDGV is “no binding”.
The same measure for DKERGDLV: “no binding”; for VAEKGDGV: “no binding”; for VGRTSFGF: “binds”.
The entry for VAGRGVGD is “binds”; for VRTRAAVD it is “binds”; for VRGGDAAS it is “no binding”.
In the case of VETEGDWD, the non-specific binding call was “no binding”.
With YKARGAAY, the non-specific binding call is reported as “binds”.
Consider VRERGSLY, for which the non-specific binding call is on record as “binds”.
The entry for FRRGGAGY is “binds”; for YRAKSSGV it is “binds”.
The entry for YKGRGSLF is “binds”.
Take SAAGGDGV chain 1 L45S: the non-specific binding call is listed as “no binding”.
The same measure for YRREGSLA: “binds”; for YKEGGSGD: “no binding”.
In the case of FRGKGSGA, the non-specific binding call is reported as “binds”.
The same measure for YARADSLD: “no binding”; for FRTGDAWV: “no binding”.
The same measure for YRRRGAGD: “binds”.
For the variant FARAGDWV, the non-specific binding call is listed as “binds”.
As to FRAGGAWV, the non-specific binding call is reported as “binds”.
The entry for FATKGFGD is “binds”; for VAEKGDAA it is “no binding”.
The entry for YRTGASSD is “binds”; for FKGRGAAD it is “binds”.
The entry for VRGRSSLF is “binds”; for DRGGDDAA it is “no binding”; for VRGKGAWD it is “binds”.
With YKGKGSWD, the non-specific binding call was “binds”.
The entry for YRRGGDGA is “binds”; for YRGGTSVD it is “binds”; for SETKGDWD it is “no binding”.
In the case of FAEGAAAV, the non-specific binding call is “no binding”.
The entry for DAGKGAVV is “no binding”.
In the case of VRKRGALD, the non-specific binding call is recorded as “binds”.
Take DARGGSSV: the non-specific binding call is given as “no binding”.
Consider YRRRGDAD, for which the non-specific binding call is recorded as “binds”.
The same measure for VEGTSSLD: “no binding”; for YRRGSFGA: “binds”.
As for VAEGGYAV, the non-specific binding call is on record as “binds”.
For ATTKSDGV, the non-specific binding call is reported as “no binding”.
YAGRGDLV: the non-specific binding call is recorded as “no binding”.
The entry for YRRGSASS is “binds”; for VKGGNVGV it is “binds”; for STGRADWA it is “no binding”.
Regarding DEGGGAGS, the non-specific binding call was “no binding”.
The entry for AARADDWV is “no binding”; for DRAGDDGD it is “no binding”; for ARGRGAAD it is “binds”.
FRGRDVVV: the non-specific binding call was “binds”.
Consider DRAGDDVY, for which the non-specific binding call is on record as “no binding”.
With DRAGDDVV, the non-specific binding call is “no binding”.
As to DEGGTAVV, the non-specific binding call is “no binding”.
Regarding YRKGSAAA, the non-specific binding call is given as “binds”.
Regarding VTTRDDSD, the non-specific binding call was “no binding”.
Regarding FKRRSFGS, the non-specific binding call is “binds”.
For the variant FKTRDFAY, the non-specific binding call is listed as “binds”.
FTEEGAVD: the non-specific binding call was “no binding”.
The entry for YKTGGASS is “binds”; for YTGGDDVV it is “no binding”.
In the case of YRGEGAWV, the non-specific binding call is “binds”.
The entry for YARGGDLD is “no binding”.
Consider FRAGGSAA, for which the non-specific binding call is “binds”.
The same measure for AARADSLS: “no binding”; for FKGTDSSD: “binds”.
The same measure for FAGGGDAV: “no binding”; for FREKGDLA: “no binding”.
The same measure for VRRGDVGV: “binds”.
